Measurements: the supplement of paper PMC9170038

Test system: MS2 coat protein
Test: apparent KD of MS2 coat protein; designed switch direction (-1 OFF switch, 1 ON switch): 1; higher = weaker reporter binding
Summary of the method: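 Normalised cluster fluorescence was curve-fitted, and each design's median over clusters is its apparent KD. Before this, SNAP-549-labelled MS2 coat protein was titrated from 0.7 or 1.5 nM, doubling to 3 µM, over RNA switches transcribed on Illumina chips by stalled E. coli RNA polymerase. Titrations had no input, 200 uM small-molecule ligand, or an oligonucleotide input, and steps lasted 0.8–1.5 h (lowest) to 10–20 min (highest).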

[1] = input ligand: microRNA oligo, concentration not stated
[2] = Eterna round: R95, input ligand: FMN 200 uM
[3] = Eterna round: R95, input ligand: microRNA oligo, concentration not stated
[4] = Eterna round: R95, input ligand: none

Row | Sequence | apparent KD of MS2 coat protein (input ligand: FMN 200 uM) [nM] | apparent KD of MS2 coat protein [1] [nM] | apparent KD of MS2 coat protein (input ligand: none) [nM] | apparent KD of MS2 coat protein [2] [nM] | apparent KD of MS2 coat protein [3] [nM] | apparent KD of MS2 coat protein [4] [nM]
1 | GCUAGGAAAGAAGCCAACAUGAGGAUCACCCAUGUAUGUUGGUAGGAUAUCGUUUGCAAAGCAAACGAGAAGGGCUAACCUAGC [Mat - Same State NG 3 - JL Mod - D73] (Eterna round: R96, puzzle: Same State NG 3) | 202 | 203 | 184 |  |  | 
2 | GCUAGGAAUAAAGCCAACAUGAGGAUCACCCAUGUAUGUUGGUAGGAUAUCGUUUGCAAAGCAAACGAGAAGGGCUAACCUAGC [Mat - Same State NG 3 - JL Mod - D68] (Eterna round: R96, puzzle: Same State NG 3) | 85.8 | 62.7 | 71.1 |  |  | 
3 | GCUAGGAUAUGACGAGGAUCACCCGUUAGAAGGAGCGAAGGCUAGGAUAUGACGAGGAUCACCCGUUAGAAGGAGCUGUACUCU [pwkr ssNG3 DX 2xF5 +2xFMN.10] (Eterna round: R96, puzzle: Same State NG 3) | 188 | 64.9 | 80.3 |  |  | 
4 | GCUCGAUGAGCGUUUUACAUGAGGAUCACCCAUGUUCGUGGGCAGGAUAUUUACGUGCGGUGUGUAGAGAAGGGCCCAUCGAGC [SameState NG3 #69] (Eterna round: R96, puzzle: Same State NG 3) | 87.1 | 247 | 529 |  |  | 
5 | GCUCGAUGAGCUGUUUACAUGAGGAUCACCCAUGUAAAUGGGCAGGAUAUUUACGUGCUUUGUGUAGAGAAGGGCCCAUCGAGC [SameState NG3 #76] (Eterna round: R96, puzzle: Same State NG 3) | 32.4 | 103 | 235 |  |  | 
6 | GCUCGCACGAUGACCGACAUGAGGAUCACCCAUGUGUGUCGGUAGGAUAUCUAUAUUAAGGAUUUAGAGAAGGGCCCAGCGAGC [SameState NG3 #20] (Eterna round: R96, puzzle: Same State NG 3) | 68.3 | 68.5 | 69.3 |  |  | 
7 | GCUCGUGGUAUUGUCUACAUGAGGAUCACCCAUGUGGGUGCGGAGGAUAUCUACGUGUCUCAUGUAGAGAAGGUCGUCACGAGC [SameState NG3 #100] (Eterna round: R96, puzzle: Same State NG 3) | 119 | 119 | 102 |  |  | 
8 | GCUCUGGCGGUAGGAUAUCUAGGAUAUGGGAAAGACUAAGUCUGUAGGUCACCUAACCCAGAAGGAGAGAAGGACCCUGUAAGG [pwkr ssNG2 2FMN + F9.23] (Eterna round: R96, puzzle: Same State NG 2) | 21 | 17.2 | 18.6 |  |  | 
9 | GCUGCAAUAAACGCCUACAUGAGGAUCACCCAUGUAUGUAGGCAGGAUAUCGUAUGCAAAGCAUACGAGAAGGGCCGUAGUAGC [Mat - Same State NG 3 - JL Mod - D36] (Eterna round: R96, puzzle: Same State NG 3) | 26.4 | 44.4 | 56.6 |  |  | 
10 | GCUGGAAACCACAUGAGGAUCACCCAUGUUCCGGAAACGGCACAGGAUAUCUGUCCGAAAAGGUCAGAGAAGGGUGAAACCAGC [Fiskers NG3ss - 83] (Eterna round: R96, puzzle: Same State NG 3) | 263 | 114 | 188 |  |  | 
11 | GCUGGAAACCACAUGAGGAUCACCCAUGUUCCGGAAACGGCGCAGGAUAUCUGUCCGAAAAGGUCAGAGAAGGGUGAAACCAGC [Fiskers NG3ss - 80] (Eterna round: R96, puzzle: Same State NG 3) | 600 | 387 | 346 |  |  | 
12 | GCUUCACAUGAGGAUCACCCAUGUCGUCGGAGUCGAGGAUAUGGUAACUGUAAACAGUUGCCAGAAGGCGAGGAGC [SS1 - Son of Teenbexe v10] (puzzle: Same State 1) |  |  |  | 23.2 | 24.4 | 26
13 | GCUUCGGCGGUAGGAUAUCUAGGAUAUGGGAAAGACUAAGUCUGUAGGUCACCUAACCCAGAAGGAGAGAAGGACAGGUUCGCC [pwkr ssNG2 2FMN + F9.35] (Eterna round: R96, puzzle: Same State NG 2) | 415 | 1.71 | 1.98 |  |  | 
14 | GGAAGGAGGUCAGGAUAUGAAUGGAUGGGACAUGAGGAUCACCCAUGUAAUAGAAGAAAUCUACAUUAGAAGGGACAAGGAAGG [AK SSNG2-V2-5] (Eterna round: R96, puzzle: Same State NG 2) | 105 | 83.2 | 130 |  |  | 
15 | GGAAUAUGAUGUUACAUGAGGAUCACCCAUGUAGUAAUAACUAAGGAUAUCUGAAAGGGAGGAGAAGAGAAGGUAGGAUCAUAA [AK SSNG3-V2-10.2] (Eterna round: R96, puzzle: Same State NG 3) | 60 | 35.4 | 56.4 |  |  | 
16 | GGAAUAUGAUGUUACAUGAGGAUCACCCAUGUAGUGAUAACUAAGGAUAUCUGUUAAGAUAACUAAGAGAAGGUAGGAUCAUAA [AK SSNG3-V2-8.3] (Eterna round: R96, puzzle: Same State NG 3) | 49.7 | 44.9 | 55.9 |  |  | 
17 | GGAAUAUUUACAGGAUAUGAUUUGUAAAGUCGAUCAGAAGGGUGGAUGUCUUACACGGUUUGUUACAUGAGGAUCACCCAUGUC [SameState NG1 #13] (Eterna round: R96, puzzle: Same State NG 1) | 232 | 233 | 378 |  |  | 
18 | GGAAUAUUUACAGGAUAUGUUUUGUUAAGUCGAGCAGAAGGGUAGAUGUCUUACACGGUUUGUUACAUGAGGAUCACCCAUGUC [SameState NG1 #16] (Eterna round: R96, puzzle: Same State NG 1) | 26.4 | 80.3 | 126 |  |  | 
19 | GGAAUAUUUACAGGAUAUGUUUUGUUAAGUCGAGCAGAAGGGUGGAUGUCUUACACGGUUUGUUACAUGAGGAUCACCCAUGUC [SameState NG1 #15] (Eterna round: R96, puzzle: Same State NG 1) |  | 188 |  |  |  | 
20 | GGAAUGUGAUGUUACAUGAGGAUCACCCAUGUAGUGACAACUAAGGAUAUCUGAAAAGAAGGAGAGGAGAAGGUAGGAUCACAA [AK SSNG3-V2-15] (Eterna round: R96, puzzle: Same State NG 3) | 30.8 | 39.2 | 58.9 |  |  | 
21 | GGACGUCAAUCUCCUAAUUAAACAUGAGGAUCACCCAUGUCACAGGAUAUGAGUCCGAUUAGGACUCAGAAGGGUGAGACGUCC [Fiskers NG3ss - 49] (Eterna round: R96, puzzle: Same State NG 3) | 22.1 | 17.2 | 25.8 |  |  | 
22 | GGAGAACAUGAGGAUCACCCAUGUGGAUGGGCGCUAGGAUAUGCGAGAGGGUGGAGAGAAGCAGAAGGAGUGGAUA [JR_SS1_Sub037] (puzzle: Same State 1) |  |  |  |  | 50.2 | 
23 | GGAGAGAGAGCGCAGGAUAUUCGAGGAGAAACAUGAGGAUCACCCAUGUGAGAGAGAGAGGAGAAGGAGAAGGGUGAGAGAGAGG [Altered State 2-14 - Jieux - Same State 2] (puzzle: Same State 2) |  |  |  | 147 | 34.9 | 32.6
24 | GGAGCCAAGGCAGGAUAUUCAUAUUAACAACAUGAGGAUCACCCAUGUAAGGCCAGAAGGCCUUGGGAGAAGGGCCAUGGCUCG [Xeonanis - 13 mod4] (Eterna round: R96, puzzle: Same State NG 2) | 26.2 | 110 | 187 |  |  | 
25 | GGAGCCAAGGCAGGAUAUUCAUAUUAAUAACACAUGAGGAUCACCCAUGUGGCCAGAAGGCCUUGGGAGAAGGGCCAUGGCUCG [Xeonanis - 13 mod9] (Eterna round: R96, puzzle: Same State NG 2) | 28 | 57.7 | 95.3 |  |  | 
26 | GGAGCCGGCACCGAGGAUAUUCAUAUUAAAACAUGAGGAUCACCCAUGUAGAGCGAAAGCUCUUGGGAGAAGGCGGAUCGGCUCG [Xeonanis - 28] (Eterna round: R96, puzzle: Same State 2) | 34.6 | 488 | 665 |  |  | 
27 | GGAGCCGGCACCGAGGAUAUUCAUAUUAAAACAUGAGGAUCACCCAUGUAGAGCGAAAGCUCUUGGGAGAAGGCGGAUCGGCUCG [Xeonanis - 28] (puzzle: Same State 2) |  |  |  | 34.1 | 672 | 1060
28 | GGAGCCGGCACCGAGGAUAUUCAUAUUAAAACAUGAGGAUCACCCAUGUAGGUCGAAAGACCUUGGGAGAAGGCGGAUCGGCUCG [Xeonanis - 30] (puzzle: Same State 2) |  |  |  | 38.3 | 518 | 803
29 | GGAGCCGGCACUGAGGAUAUUCAUAUUAAAACAUGAGGAUCACCCAUGUAGGCCAGAAGGCCAUGGGAGAAGGCAGGUCGGCCCG [Bibimoar - 7] (puzzle: Same State 2) |  |  |  | 46.7 | 211 | 416
30 | GGAGCCGGCACUGAGGAUAUUCAUAUUAAAACAUGAGGAUCACCCAUGUAGGCCAGAAGGCCUUGGGAGAAGGCAGGUCGGCUCA [Mat - Same State 2 - Mod of UCT - D59] (puzzle: Same State 2) |  |  |  | 20.5 | 235 | 338
